Measurements as given in patent US20170183403A1.

Biological target: T1, Reference peptide no. 48
T1 sequence (peptide): PKLTRMLTFKFAMPK
Experiment: peptide microarray (RepliTope), Ala mutagenesis set

## NARA1 (antibody)
  signal intensity after subtraction of control signal: 6200 AU
